The values below come from patent US20240409647A1 (SINOMAB BIOSCIENCE, published 2024).

Test [1] addresses T1, human TSLP (R&D systems) (human, UniProt Q969D9 29-159).
T1 construct: also called thymic stromal lymphopoietin
Kind of test: BLI (Octet RED96), binder captured via anti-human Fab CH1, TSLP in solution.
Description: (§1) Biosensors immobilized with irrelevant antibody (SM03, anti-human CD22 chimeric IgG1 antibody, SinoMab BioScience Limited, 20 μg/mL) were used as control reference.

Test [2] deals with T2, human IL-33 (R&D systems) (human, UniProt O95760 112-270).
T2 sequence (looked up): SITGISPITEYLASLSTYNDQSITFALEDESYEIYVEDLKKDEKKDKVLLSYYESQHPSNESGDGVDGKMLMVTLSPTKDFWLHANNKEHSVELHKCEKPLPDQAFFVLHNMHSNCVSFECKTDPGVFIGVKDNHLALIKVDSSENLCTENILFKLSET
Kind of test: BLI (Octet RED96), binder captured via anti-human Fab CH1, IL33 in solution. (In general: BLI is a label-free optical method that tracks binding on a fibre tip over time.)
Description: as §1

Some results are limits rather than exact numbers.

B1: SM17-anti TSLP 1# bsBp (bispecific antibody, human IgG4 S228P, kappa)
heavy: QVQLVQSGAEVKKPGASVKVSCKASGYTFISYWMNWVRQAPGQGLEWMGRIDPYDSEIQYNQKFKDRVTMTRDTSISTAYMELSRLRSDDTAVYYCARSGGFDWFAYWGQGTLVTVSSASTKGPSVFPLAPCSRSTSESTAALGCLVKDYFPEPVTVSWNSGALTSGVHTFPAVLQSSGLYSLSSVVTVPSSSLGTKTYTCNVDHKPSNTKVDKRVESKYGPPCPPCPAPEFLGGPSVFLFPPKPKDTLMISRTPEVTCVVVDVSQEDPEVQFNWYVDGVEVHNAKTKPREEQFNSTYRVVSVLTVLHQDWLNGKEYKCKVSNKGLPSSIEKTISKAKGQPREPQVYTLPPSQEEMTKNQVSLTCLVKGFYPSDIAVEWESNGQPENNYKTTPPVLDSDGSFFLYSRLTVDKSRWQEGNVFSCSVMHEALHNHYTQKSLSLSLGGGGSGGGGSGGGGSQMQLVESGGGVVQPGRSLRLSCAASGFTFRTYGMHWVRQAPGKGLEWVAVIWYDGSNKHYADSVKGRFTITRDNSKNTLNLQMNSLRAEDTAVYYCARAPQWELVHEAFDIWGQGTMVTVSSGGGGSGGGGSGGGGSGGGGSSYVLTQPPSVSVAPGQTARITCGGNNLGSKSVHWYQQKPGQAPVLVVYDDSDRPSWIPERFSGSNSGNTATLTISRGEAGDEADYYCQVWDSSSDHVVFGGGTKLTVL
light: DIQMTQSPSSLSASVGDRVTITCRASENINSNLAWYQQKPGKAPKLLLYDVTNLADGVPSRFSGSGSGTDYTLTISSLQPEDFATYYCQHFWGPPYTFGGGTKVEIKRTVAAPSVFIFPPSDEQLKSGTASVVCLLNNFYPREAKVQWKVDNALQSGNSQESVTEQDSKDSTYSLSSTLTLSKADYEKHKVYACEVTHQGLSSPVTKSFNRGEC
notes: SM17 IgG with an anti-TSLP scFv fused to the C-terminus of each heavy chain; expressed in ExpiCHO-S cells
Consider B1, for which, in test [1], the Kd – broadly, the equilibrium constant for the complex coming apart – is 0.511 nM; the koff (commonly the first-order rate constant of dissociation) stood at 0.000241 s⁻¹; the on-rate (kon) (in general, the second-order rate constant of association) stood at 472000 M⁻¹ s⁻¹.

B2: SM17-anti TSLP 2# bsBp (bispecific antibody, human IgG4 S228P, kappa)
heavy: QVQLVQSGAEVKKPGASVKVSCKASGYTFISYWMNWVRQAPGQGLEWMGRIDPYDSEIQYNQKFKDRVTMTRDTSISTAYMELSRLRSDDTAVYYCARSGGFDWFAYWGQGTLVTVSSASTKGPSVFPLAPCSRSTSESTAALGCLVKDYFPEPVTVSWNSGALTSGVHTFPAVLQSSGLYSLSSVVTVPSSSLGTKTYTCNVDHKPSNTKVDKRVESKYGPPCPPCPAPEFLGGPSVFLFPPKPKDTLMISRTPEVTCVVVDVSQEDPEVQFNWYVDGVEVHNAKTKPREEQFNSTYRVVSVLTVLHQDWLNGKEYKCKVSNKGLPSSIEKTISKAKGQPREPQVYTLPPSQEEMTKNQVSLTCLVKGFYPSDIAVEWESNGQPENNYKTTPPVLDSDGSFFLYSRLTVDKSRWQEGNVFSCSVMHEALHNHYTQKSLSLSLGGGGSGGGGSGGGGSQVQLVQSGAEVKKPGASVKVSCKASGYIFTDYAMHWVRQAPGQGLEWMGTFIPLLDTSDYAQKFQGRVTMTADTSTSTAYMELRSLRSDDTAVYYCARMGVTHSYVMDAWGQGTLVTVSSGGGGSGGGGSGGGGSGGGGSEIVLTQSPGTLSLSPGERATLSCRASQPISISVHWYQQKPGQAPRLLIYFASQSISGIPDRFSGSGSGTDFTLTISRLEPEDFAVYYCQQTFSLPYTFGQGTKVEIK
light: B1 light
notes: SM17 IgG with an anti-TSLP scFv fused to the C-terminus of each heavy chain; also called SM17-anti-TSLP bsBp 2 #
In test [1], B2 displayed a Kd of less than 0.001 nM, a koff of less than 1e-07 s⁻¹ and a kon of 374000 M⁻¹ s⁻¹.

B3: SM17-anti IL-33 1# bsBp (bispecific antibody, human IgG4 S228P, kappa)
heavy: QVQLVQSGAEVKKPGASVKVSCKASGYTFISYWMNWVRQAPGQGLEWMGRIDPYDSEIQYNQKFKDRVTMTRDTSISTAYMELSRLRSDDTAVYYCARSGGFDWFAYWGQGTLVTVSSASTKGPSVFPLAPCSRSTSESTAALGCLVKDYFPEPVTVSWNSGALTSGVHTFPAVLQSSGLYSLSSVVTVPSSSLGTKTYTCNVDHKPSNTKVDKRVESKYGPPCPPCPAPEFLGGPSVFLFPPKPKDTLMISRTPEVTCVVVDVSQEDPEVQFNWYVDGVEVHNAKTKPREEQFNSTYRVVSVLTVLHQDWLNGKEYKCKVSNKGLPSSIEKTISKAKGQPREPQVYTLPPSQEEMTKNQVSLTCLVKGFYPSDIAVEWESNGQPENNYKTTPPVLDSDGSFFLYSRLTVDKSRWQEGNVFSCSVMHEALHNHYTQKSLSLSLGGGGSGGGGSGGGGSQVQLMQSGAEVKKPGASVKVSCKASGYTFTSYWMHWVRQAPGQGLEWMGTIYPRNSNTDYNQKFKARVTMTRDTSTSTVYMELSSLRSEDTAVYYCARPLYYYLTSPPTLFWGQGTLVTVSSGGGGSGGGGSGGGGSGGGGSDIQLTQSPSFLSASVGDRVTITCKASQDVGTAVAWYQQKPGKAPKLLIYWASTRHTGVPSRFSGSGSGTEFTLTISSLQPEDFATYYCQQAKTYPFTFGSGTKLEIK
light: B1 light
notes: SM17 IgG with an anti-IL-33 scFv fused to the C-terminus of each heavy chain
Regarding B3, in test [2], the Kd is 28.9 nM, the koff amounted to 0.000283 s⁻¹ and the kon was found to be 9810 M⁻¹ s⁻¹.

B4: SM17-anti IL-33 3# bsBp (bispecific antibody, human IgG4 S228P, kappa)
heavy: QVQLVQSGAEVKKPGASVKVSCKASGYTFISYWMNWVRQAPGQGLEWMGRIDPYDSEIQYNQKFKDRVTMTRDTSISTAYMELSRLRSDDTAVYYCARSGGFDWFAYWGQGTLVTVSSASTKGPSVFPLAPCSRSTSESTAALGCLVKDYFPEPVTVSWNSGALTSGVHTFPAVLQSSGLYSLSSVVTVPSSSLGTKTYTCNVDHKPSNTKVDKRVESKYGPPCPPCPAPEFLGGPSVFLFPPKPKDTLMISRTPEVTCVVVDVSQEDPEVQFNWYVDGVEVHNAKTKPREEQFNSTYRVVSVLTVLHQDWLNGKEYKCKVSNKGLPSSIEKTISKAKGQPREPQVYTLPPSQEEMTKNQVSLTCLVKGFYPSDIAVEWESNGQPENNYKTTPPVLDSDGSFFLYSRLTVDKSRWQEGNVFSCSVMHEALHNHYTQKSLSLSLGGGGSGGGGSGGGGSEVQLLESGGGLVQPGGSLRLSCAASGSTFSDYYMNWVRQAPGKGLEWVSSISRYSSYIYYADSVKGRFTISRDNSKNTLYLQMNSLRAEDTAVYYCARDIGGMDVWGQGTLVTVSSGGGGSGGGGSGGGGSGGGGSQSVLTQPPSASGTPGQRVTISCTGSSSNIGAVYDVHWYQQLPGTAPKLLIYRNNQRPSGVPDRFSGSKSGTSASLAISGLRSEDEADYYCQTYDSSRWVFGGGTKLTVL
light: B1 light
notes: as for B3
For the molecule B4, in test [2], the Kd is no more than 0.0425 nM, the koff was less than 1e-07 s⁻¹ and the on-rate (kon) was determined as 22700 M⁻¹ s⁻¹.

B5: SM17-anti IL-33 2# bsBp (bispecific antibody, human IgG4 S228P, kappa)
heavy: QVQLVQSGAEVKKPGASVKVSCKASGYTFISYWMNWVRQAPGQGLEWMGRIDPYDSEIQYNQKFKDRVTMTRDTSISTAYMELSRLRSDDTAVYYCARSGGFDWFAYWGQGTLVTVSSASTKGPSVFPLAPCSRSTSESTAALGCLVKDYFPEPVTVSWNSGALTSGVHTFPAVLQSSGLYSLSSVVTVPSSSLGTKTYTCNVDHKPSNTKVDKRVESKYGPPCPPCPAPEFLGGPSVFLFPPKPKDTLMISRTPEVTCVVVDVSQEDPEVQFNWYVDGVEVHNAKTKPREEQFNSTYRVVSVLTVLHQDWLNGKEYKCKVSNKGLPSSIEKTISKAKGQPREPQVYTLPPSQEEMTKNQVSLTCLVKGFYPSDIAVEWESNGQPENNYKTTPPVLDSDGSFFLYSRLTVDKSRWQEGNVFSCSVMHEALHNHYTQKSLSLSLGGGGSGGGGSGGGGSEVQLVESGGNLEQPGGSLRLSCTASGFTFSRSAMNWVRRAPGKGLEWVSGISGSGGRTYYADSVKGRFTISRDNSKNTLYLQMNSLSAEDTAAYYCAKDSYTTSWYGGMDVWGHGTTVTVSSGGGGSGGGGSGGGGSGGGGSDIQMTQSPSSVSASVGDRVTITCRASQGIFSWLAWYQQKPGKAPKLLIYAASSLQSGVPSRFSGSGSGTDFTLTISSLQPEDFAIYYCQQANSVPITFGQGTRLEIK
light: B1 light
notes: as for B3
In test [2], B5 came in with a Kd of less than 0.0259 nM, a koff of less than 1e-07 s⁻¹ and a kon of 37300 M⁻¹ s⁻¹.
